# Assay results taken from patent publication US20220380444A1 (UNIVERSITY COLLEGE CARDIFF CONSULTANTS, published 2022).
# B1: monoclonal anti-C7 antibody 73D1 (antibody, IgG2a, V domains shown)
# VH: EVQLQQSGPELVKPGASVKMSCKASGYTFTDYNMHWVKQSHGKSLEWIGYINPNNGGPSYNQNFKGKATLTVNKSSSTAYMELRSLTSEDSAVYYCACGNYPDYWGQGTTLTVSS
# VL: DIQMTQSPASLSASVGETVTITCRASGNIHNYLAWYQQKQGKSPQLLVYNAKTLADGVPSRFSGSGSGTQYSLKINSLQPEDFGSYYCQHFWSTPLTFGAGTKLELK
# notes: also called mAb 73D1; antibody from hybridoma ECACC 19080601
# B2: monoclonal anti-C7 antibody 17E7 (antibody, IgG2a, V domains shown)
# VH: EVQLQQSGTVLARPGASVKMSCKTSGYSFTTYWMHWVKQRPGQGLEWIGAIYPGNSDTYYSQKFKDKAKLTAVTSASTAYMELSSLTNEDSAVYYCTRSGGYDVGGLDYWGQGTTLTVSS
# VL: DIVMTQSPATLSVTPGDGVSLSCRASQSISDYLHWYQQKSHESPRLLIKFASQSISGIPSRFSGSGSGSDFTLSINSVEPEDVGMYYCQNGHSFPFTFGSGTKLELK
# notes: also called mAb 17E7; antibody from hybridoma ECACC 19041601
# B3: monoclonal anti-C7 antibody 2H2 (antibody, IgG2b, V domains shown)
# VH: QVQLQQPGAELMKPGASVKLSCKASGYIFTSYWMHWVKQRPGRGLEWIGRIDPNSGGTNYNEKFKSKATLTVDKPSSTVYMKISSLTSEDSAVYYCAREHDYDYAMDYWGQGTSVTVSS
# VL: DIVMTQAAPSVPVTPGESVSISCRSSKSLLHSNGNTYLYWFLQRPGQSPQLLIYRMSNLASGVPDRFSGSGSGTAFTLRISRVEAEDVGVYYCMQHLEYPFTFGSGTKLEIK
# notes: Biotinylated in the pull-down assays; also called mAb 2H2; clone 2H2
# What was measured:
# [1] = biological target: T1, rat C7 protein (rat); test: SPR (Biacore); antibody captured on mouse IgG capture kit (CM5 chip), C7 flowed over
# T1 chain: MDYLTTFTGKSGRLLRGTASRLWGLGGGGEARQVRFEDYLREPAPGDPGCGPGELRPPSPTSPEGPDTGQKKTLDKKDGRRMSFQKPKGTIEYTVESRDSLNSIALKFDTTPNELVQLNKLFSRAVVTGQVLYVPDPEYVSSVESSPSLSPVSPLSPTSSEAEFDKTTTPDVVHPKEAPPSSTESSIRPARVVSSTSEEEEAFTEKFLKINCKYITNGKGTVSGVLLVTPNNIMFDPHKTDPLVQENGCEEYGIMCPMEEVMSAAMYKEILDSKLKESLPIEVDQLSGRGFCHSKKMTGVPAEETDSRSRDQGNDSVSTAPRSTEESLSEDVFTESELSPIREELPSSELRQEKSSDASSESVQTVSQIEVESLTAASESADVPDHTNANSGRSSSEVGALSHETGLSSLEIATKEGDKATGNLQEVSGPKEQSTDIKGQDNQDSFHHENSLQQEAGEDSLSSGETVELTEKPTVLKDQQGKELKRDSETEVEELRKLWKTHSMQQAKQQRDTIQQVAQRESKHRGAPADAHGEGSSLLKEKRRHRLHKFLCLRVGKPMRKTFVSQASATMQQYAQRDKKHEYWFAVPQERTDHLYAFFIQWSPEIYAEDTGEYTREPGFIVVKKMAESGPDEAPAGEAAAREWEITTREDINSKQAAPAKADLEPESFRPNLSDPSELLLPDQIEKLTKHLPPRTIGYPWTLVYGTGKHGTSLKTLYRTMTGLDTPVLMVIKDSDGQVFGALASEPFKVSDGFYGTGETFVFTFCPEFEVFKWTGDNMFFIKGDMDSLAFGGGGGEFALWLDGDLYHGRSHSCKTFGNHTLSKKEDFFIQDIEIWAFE
# Description: (§1) Dissociation was then measured for a further 600 seconds. The surface was regenerated between each cycle.
# [2] = biological target: T2, human complement protein C7 (human, UniProt P10643 23-843); test: as above
# T2 construct: Purified in house, or present in human serum in the western blots; also called human C7; Hu C7
# T2 sequence (P10643 other isoform, or with tags, fused parts or gaps limits assumed): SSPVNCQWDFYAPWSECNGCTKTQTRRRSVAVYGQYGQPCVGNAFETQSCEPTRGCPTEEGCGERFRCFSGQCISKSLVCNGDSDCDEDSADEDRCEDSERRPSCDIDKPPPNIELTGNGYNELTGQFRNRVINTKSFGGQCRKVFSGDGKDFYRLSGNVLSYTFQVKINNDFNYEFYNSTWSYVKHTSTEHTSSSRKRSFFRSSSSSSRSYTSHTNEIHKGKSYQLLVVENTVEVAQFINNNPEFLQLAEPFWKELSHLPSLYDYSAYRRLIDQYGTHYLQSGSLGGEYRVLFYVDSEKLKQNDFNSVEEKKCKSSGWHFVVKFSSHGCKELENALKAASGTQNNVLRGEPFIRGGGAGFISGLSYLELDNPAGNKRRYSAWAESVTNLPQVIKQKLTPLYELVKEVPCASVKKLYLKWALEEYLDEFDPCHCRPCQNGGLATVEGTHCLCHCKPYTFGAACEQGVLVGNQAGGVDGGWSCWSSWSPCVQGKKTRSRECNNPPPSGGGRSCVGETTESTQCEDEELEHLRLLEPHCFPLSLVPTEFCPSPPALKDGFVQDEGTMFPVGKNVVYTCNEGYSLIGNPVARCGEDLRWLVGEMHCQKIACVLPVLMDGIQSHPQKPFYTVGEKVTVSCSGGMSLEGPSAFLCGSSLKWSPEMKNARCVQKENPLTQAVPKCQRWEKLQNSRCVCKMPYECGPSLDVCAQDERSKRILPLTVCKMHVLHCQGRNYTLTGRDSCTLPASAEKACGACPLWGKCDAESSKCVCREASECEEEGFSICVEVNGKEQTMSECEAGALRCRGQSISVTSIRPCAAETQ
# Description: as §1
# [3] = biological target: T1, rat C7 protein; test: cell-based or functional assay
# [4] = biological target: T2, human complement protein C7; test: cell-based or functional assay
# [5] = biological target: mouse C7 protein (mouse, UniProt D3YXF5 23-845); test: cell-based or functional assay
# Sequence of mouse C7 protein (D3YXF5 23-845 limits assumed): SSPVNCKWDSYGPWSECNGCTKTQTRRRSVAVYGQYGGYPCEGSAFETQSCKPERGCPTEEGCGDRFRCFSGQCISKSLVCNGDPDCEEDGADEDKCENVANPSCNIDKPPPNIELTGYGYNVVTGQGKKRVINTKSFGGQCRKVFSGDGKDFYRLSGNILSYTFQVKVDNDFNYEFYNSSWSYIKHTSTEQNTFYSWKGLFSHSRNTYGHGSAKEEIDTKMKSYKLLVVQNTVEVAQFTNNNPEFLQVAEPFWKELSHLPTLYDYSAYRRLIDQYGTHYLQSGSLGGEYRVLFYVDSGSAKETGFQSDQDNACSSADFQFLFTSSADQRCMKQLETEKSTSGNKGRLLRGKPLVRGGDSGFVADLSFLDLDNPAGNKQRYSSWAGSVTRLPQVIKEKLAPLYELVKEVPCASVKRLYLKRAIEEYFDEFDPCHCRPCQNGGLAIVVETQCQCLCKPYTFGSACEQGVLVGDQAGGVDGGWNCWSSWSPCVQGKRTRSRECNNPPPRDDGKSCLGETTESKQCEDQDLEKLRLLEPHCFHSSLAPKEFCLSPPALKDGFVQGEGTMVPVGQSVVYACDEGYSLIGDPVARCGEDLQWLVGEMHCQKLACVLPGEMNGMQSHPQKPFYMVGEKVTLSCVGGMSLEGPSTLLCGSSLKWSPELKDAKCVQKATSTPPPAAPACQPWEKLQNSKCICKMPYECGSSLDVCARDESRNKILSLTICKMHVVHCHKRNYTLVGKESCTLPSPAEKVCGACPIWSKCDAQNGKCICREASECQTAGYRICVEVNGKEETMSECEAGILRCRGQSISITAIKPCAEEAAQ
# [6] = biological target: T2, human complement protein C7; test: direct ELISA, C7 immobilised on the well, antibody titrated
# Description: Wells were blocked with bovine serum albumin (BSA), washed, then incubated (1 hour at 37° C.) with test samples containing mAb (supernatants from hybridoma clones for example). Wells were washed then incubated as above with peroxidase-labelled anti-mouse immunoglobulin (Jackson Labs). Wells were washed and signals were developed with OPD (o-phenylenediamine dihydrochloride; Sigma). Colour development was stopped by adding 10% H₂SO₄ to all wells, usually within 5 minutes. The absorbance of each well was measured at 492 nm.
# [7] = biological target: T2, human complement protein C7; test: sandwich ELISA, 2H2 coated as capture, human C7 titrated, goat anti-C7 as detection
# [8] = biological target: T1, rat C7 protein; test: direct ELISA, rat C7 on the well, antibody titrated
# [9] = biological target: T2, human complement protein C7; test: sandwich ELISA, 2H2 coated as capture, human C7 titrated, polyclonal anti-C7 as detection
binder,measurement,setting,value
B1,Kd,[1],81.7 nM
same,koff,[1],0.00057 s⁻¹
same,kon,[1],6980 M⁻¹ s⁻¹
same,Kd,[2],55.5 nM
same,koff,[2],0.0015 s⁻¹
same,kon,[2],26300 M⁻¹ s⁻¹
same,"50% Inhibitory Dose, classical pathway haemolysis assay",[3],506 ng/mL
same,"Haemolytic Units (HU), classical pathway haemolysis assay",[3],19.8 HU
same,"50% Inhibitory Dose, classical pathway haemolysis assay",[4],582 ng/mL
same,"Haemolytic Units (HU), classical pathway haemolysis assay",[4],17.2 HU
same,"50% Inhibitory Dose, classical pathway haemolysis assay",[5],720 ng/mL
same,"Haemolytic Units (HU), classical pathway haemolysis assay",[5],13.9 HU
B2,Kd,[2],1.02 nM
same,koff,[2],6.94e-05 s⁻¹
same,kon,[2],68300 M⁻¹ s⁻¹
same,"50% Inhibitory Dose, classical pathway haemolysis assay",[4],182 ng/mL
same,"Haemolytic Units (HU), classical pathway haemolysis assay",[4],55.1 HU
same,EC50 (read off the curve),[6],~0.01 µg/mL
B3,EC50 (read off the curve),[7],~0.6 µg/mL
same,"50% Inhibitory Dose, classical pathway haemolysis assay",[3],33.9 ng/mL
same,"Haemolytic Units (HU), classical pathway haemolysis assay",[3],265 HU
same,"50% Inhibitory Dose, classical pathway haemolysis assay",[4],9980 ng/mL
same,"Haemolytic Units (HU), classical pathway haemolysis assay",[4],1 HU
same,"50% Inhibitory Dose, classical pathway haemolysis assay",[5],3720 ng/mL
same,"Haemolytic Units (HU), classical pathway haemolysis assay",[5],2.7 HU
same,EC50 (read off the curve),[8],~3 µg/mL
same,EC50 (read off the curve),[9],~0.6 µg/mL
